Measured values taken from patent US20100095387A1, “METHODS AND REAGENTS FOR SCREENING NEW DRUGS AND FOR TREATING ION PUMP ASSOCIATED DISORDERS AND DISEASES” (priority 2005, published 2010).
Entries after “also recorded” stand apart in the source; their conditions may differ.

Assays:
agrin receptors = agrin receptors (Mus musculus, UniProt Q6PIC6); experiment: Agrin receptor immunohistochemistry, binding of short agrin fragments to live cortical neurons
Procedure: The distribution of agrin receptors was studied using agrin deletion fragments as affinity probes. Neurons, plated on glass coverslips, were washed briefly (1-2 min) in cold PBS containing 10 mM EDTA followed by a second wash in cold PBS alone before incubation for 15 min at 4° C. with 1 pM recombinant mouse agrin in NBM. In some experiments, labeling with mouse agrin was performed in the presence of various concentrations of rat rC-Ag95y4z8 or rC-Agy0z0. Control cultures were treated with vector control protein or an equivalent volume of vehicle in which the recombinant agrin was dissolved. Cells were then washed in cold NBM, fixed for 40 min on ice in 4% PFA in PBS, then washed in PBS and blocked for 1 h in PBSB. Recombinant agrin was detected through the COOH-terminal 6× polyhistidine tag using an anti-his antibody (1:500; Invitrogen). In experiments where cells were double labeled for synaptophysin, the anti-synaptophysin:antiserum (1:400) was also added at this step. Incubations were performed overnight at 4° C. in PBSB, followed by labeling with fluorescein conjugated goat anti-mouse and Texas red labeled anti-rabbit antibodies as described in the previous paragraphs. In some experiments, the amount of mouse agrin bound was estimated by digital photomicrography using the public domain NIH Image program (http://rsb.info.nih.gov/nih-image/).

α3Na+/K+-ATPase [1] = target: T1, α3Na+/K+-ATPase (Mus musculus, UniProt Q6PIC6); experiment: Whole cell current clamp of cultured cortical neurons, channel blockers present; format: cell-based; settings: fragment alone
α3Na+/K+-ATPase [2] = target: T1, α3Na+/K+-ATPase; experiment: Na+ imaging (SBFI-AM) of cultured cortical cells; format: cell-based
[3] = target: T2, α3 subunit of the Na+/K+-ATPase (Mus musculus, UniProt Q6PIC6); experiment: Chemical cross-linking of agrin fragments to cortical neurons, immunoprecipitation and immunoblot; format: binding; settings: immunoprecipitation with phosphotyrosine antibody mAb4G10
T2 construct: a 110 kDa band characteristic of the native α3Na+/K+-ATPase; endogenous in cells; host or cells: primary mouse cortical neurons, 10-16 days in culture
Procedure: Membrane impermeant chemical cross-linking agents BS^3 and DMA were used to stabilize the bond between agrin and its binding sites on cell surface membranes. Cultured neurons were washed briefly in PBS containing 10 mM EDTA followed by preincubation with one or more agrin fragment in PBS^2+ for 30 minutes at room temperature and then cooled on ice prior to addition of a 10× solution of cross-linking agent to a final concentration of 0.1 mM. The cross-linking reaction was allowed to proceed for 30 minutes after which any unreacted cross-linker was quenched and removed by washing with ice cold PBS^2+ containing 50 mM ethanolamine. For immunoblot analysis, cells were scraped into ice-cold TI buffer (20 mM Tris, pH 7.4; 10 mM EDTA; protease inhibitors (Sigma, P8340)) then Dounce homogenized and membrane fraction recovered by centrifugation. For the immunoprecipitation studies, cells were scraped and homogenized in TI buffer containing 150 mM NaCl and 0.5% Triton X-100. Cell extracts were cleared by centrifugation and aliquots of the detergent soluble fraction incubated with the appropriate antibody at 4° C. overnight. Antigen-antibody complexes were precipitated with either protein A or protein G and resuspended in SDS-PAGE sample buffer for immunoblot analysis.
Ligand induced phosphorylation is a common first step in membrane receptor activation and inhibition of tyrosine kinase activity blocks agrin signalling in central nervous system neurons. To determine if agrin induced phosphorylation of the putative agrin receptor, membranes from neurons cross-linked to C-Ag208 or C-Ag15, alone or in combination, were dissolved, in a detergent-containing buffer and aliquots immunoprecipitated with RAg1 or the phosphotyrosine antibody mAb4G10 (Upstate). Immunoprecipitated proteins were analyzed by immunoblotting with a monoclonal antibody (9E10.2, Invitrogen) against the COON-terminal myc tag on the agrin fragments.
To confirm the results of the mass spectrometry the ability of different α-subunit antibodies to recognize the putative agrin-Na^+/K^+-ATPase complex was tested. […]

cardiac myocytes = experiment: Spontaneous contraction frequency of cultured cardiac myocytes; format: cell-based, mouse; settings: Agrn+/− and Agrn−/− myocytes grown in fragment; listed as C-Ag208
Procedure: FIG. 17. Cardiac myocyte contraction is agrin dependent. Cardiac myocytes were prepared from hearts of individual embryos produced by heterozygous pairings. The genotype of cultures was determined by PCR analysis of tissue samples from each embryo. Myocytes were maintained in 199 medium containing 10% FCS as described (Mitcheson et al., 1998). At 5 days in culture, the frequency of spontaneous contractions was determined by counting contractions in myocytes from 5 random fields at 300× magnification for 30 seconds. Contraction frequency is dependent on Agrn gene dosage such that Agrn−/−>Agrn+/−>Agrn+/+. Addition of C-Ag208 to the growth medium rescues the Agrn mutant phenotype whereas C-Ag15 increased the contraction frequency of wild type myocytes to a level similar to Agrn−/− cells. Bars show mean±SEM for a minimum of 2 independent platings from 3 embryos, except for Agrn+/−treated with C-Ag208, which was a single plating of 2 embryos. All data were collected blind with respect to genotype and agrin treatment. *** p≦0.001. ANOVA with Bonferroni post-hoc pair-wise comparison.
Quantitative studies confirmed and extended these observations by showing that the frequency of myocyte contraction is dependent on agrin gene dose: Agrn−/− myocyte contraction frequency is about 2-fold higher and Agrn+/− 1.5-fold higher than Agrn+/+ myocytes (FIG. 17). To learn whether the effect of the Agrn mutation on myocyte contraction is a direct result of the loss of agrin expression the effects of growing the cells in media supplemented with C-Ag208, an active agrin fragment, or C-Ag15, the agrin antagonist was next examined.

[4] = system: layer V neurons in acute cortical slices; experiment: Whole cell current clamp of layer V neurons in acute cortical slices; format: cell-based, mouse
[5] = system: cultured cortical neurons; experiment: Firing properties of cultured cortical neurons in normal external solution; format: cell-based, mouse; settings: normal external solution

Molecule | C-Ag20z8 labeling (agrin receptors; 1:100 molar ratio of C-Ag20z8 to rC-Agy4z8) | binding of C-Ag20z8, C-Ag20z0 and C-Ag15 (agrin receptors; large (500-fold molar) excess of rat agrin) | effect on neuron membrane potential (α3Na+/K+-ATPase [1]) | neuronal intracellular Na+ (α3Na+/K+-ATPase [2]; fragment or ouabain alone, neurons) | intracellular Na+ in non-neuronal cells (α3Na+/K+-ATPase [2]; non-neuronal cells) | tyrosine phosphorylation of the cross-linked complex [3] | contraction frequency (cardiac myocytes) | action potentials ([4]; bath application of fragment alone) | membrane depolarization ([4]; bath application, slices from 6-11 day-old mice) [mV] | membrane potential [5]
rC-Agy4z8: soluble 95-kD COOH-terminal fragment of rat agrin, active "neural" isoform (protein) AATGTTAAMATARATTVSRLPASSVTPRVYPSHTSRPVGRTTAPPTTRRPPTTATNMDRPRTPGHQQPSKSCDSQPCLHGGTCQDQDSGKGFTCSCTAGRGGSVCEKVQPPSMPAFKGHSFLAFPTLRAYHTLRLALEFRALETEGLLLYNGNARGKDFLALALLDGRVQFRFDTGSGPAVLTSLVPVEPGRWHRLELSRHWRQGTLSVDGETPVVGESPSGTDGLNLDTNLYVGGIPEEQVAMVLDRTSVGVGLKGCIRMLDINNQQLELSDWQRAAVQSSGVGECGDHPCLPNPCHGGALCQALEAGMFLCQCPPGRFGPTCADEKSPCQPNPCHGAAPCRVLSSGGAKCECPLGRSGTFCQTVLETAGSRPFLADFNGFSYLELKGLHTFERDLGEKMALEMVFLARGPSGLLLYNGQKTDGKGDFVSLALHNRHLEFCYDLGKGAAVIRSKEPIALGTWVRVFLERNGRKGALQVGDGPRVLGESPKSRKVPHTMLNLKEPLYIGGAPDFSKLARGAAVSSGFSGVIQLVSLRGHQLLTQEHVLRAVDVSPFADHPCTQALGNPCLNGGSCVPREATYECLCPGGFSGLHCEKGLVEKSVGDLETLAFDGRTYIEYLNAVIESPETLDSRALFSEKALQSNHFELSLRTEATQGLVLWIGKAAERADYMALAIVDGHLQLSYDLGSQPVVLRSTVKVNTNRWLRIRAHREHREGSLQVGNEAPVTGSSPLGATQLDTDGALWLGGLQKLPVGQALPKAYGTGFVGCLRDVVVGHRQLHLLEDAVTKPELRPCPTP | barely detectable | completely blocked |  |  |  |  |  |  |  | 
C-Ag20z8: C-Ag20 isoform having the z8 splice variant, SEQ. ID NO. 2 (protein, Synthetically produced sequence) MDPRTYIEYLNAVTESELTNEIPAEKALQSNHFELTLRTEATQGWLVLWIGKAAERADYMALAIVDGHLQLSYDLASQPVVLRSTVKVNTNRWLRVRAHREHREGSLQVGNEAPVTSSSPLGATQLDTDGALWLGGLQKLPVGQPLPKAYGTGFVGCLRNVVGHRQLHLLEDAVTKPELRPCPTLNSKLGPEQKLISEEDLNSAVDHHHHHH |  |  | rapid and reversible depolarization | rapid increase | unaffected | phosphorylated | significant decrease; also recorded: rescues |  |  | 
C-Ag20z0: C-Ag20 isoform having the z0 splice variant, SEQ. ID NO. 1 (protein, Synthetically produced sequence) MDPRTYIEYLNAVTESEKALQSNHFELTLRTEATQGWLVLWIGKAAERADYMALAIVDGHLQLSYDLASQPVVLRSTVKVNTNRWLRVRAHREHREGSLQVGNEAPVTSSSPLGATQLDTDGALWLGGLQKLPVGQPLPKAYGTGFVGCLRNVVGHRQLHLLEDAVTKPELRPCPTLNSKLGPEQKLISEEDLNSAVDHHHHHH |  |  | rapid and reversible depolarization |  |  |  |  | appearance of high frequency action potentials | 9.6±2.22 | rapidly depolarized
